Earlier results, collected in US20150050259A1, “NUTRACEUTICAL MODULATORS OF STEM CELL ACTIVITY” (Creative Medical Health Inc., priority 2011, published 2015).

Key:
[1] = patients after intensive chemotherapy
[2] = stroke patients
[3] = 114 patients, 56 treated and 58 control
[4] = acute stroke patients
[5] = between baseline and 12-month follow-up
[6] = 2.5, 5, or 10 μg/kg G-CSF for 5 consecutive days

Molecule | abnormal growth or acromegaly after treatment [1] | recovery of platelets to 25×10(9)/l, median time ([1]; P=0.03 versus placebo) | BI: change in the mean group score [2, 5] | EMS: change in the mean group score [2, 5] | ESS: change in the mean group score [2, 5] | NIHSS: change in the mean group score [2, 5] | adverse effects as a result of treatment [2] | influence on infarct size, left ventricular function, or coronary restenosis [3] | increase of CD34s over normal (subcutaneous G-CSF) | safety of administration (subcutaneous G-CSF 10 μg/kg for 6 days, revascularized STEMI patients) | increase in the leukocyte count [4, 6] | mobilization of CD34(+) cells [4, 6] | G-CSF toxicity in neuroradiological and neuropsychological follow-up [4]
GH: growth hormone, a 191-amino acid, single chain polypeptide hormone naturally produced by the anterior pituitary | no abnormal growth or acromegaly was observed | 16 days | – | – | – | – | – | – | – | – | – | – | –
G-CSF: Granulocyte colony stimulating factor, cytokine drug used for neutropenia and mobilization of hematopoietic stem cells (protein, UniProt P09919 31-207, looked up) Granulocyte …: TPLGPASSLPQSFLLKCLEQVRKIQGDGAALQEKLVSECATYKLCHPEELVLLGHSLGIPWAPLSSCPSQALQLAGCLSQLHSGLFLYQGLLQALEGISPELGPTLDTLQLDVADFATTIWQQMEELGMAPALQPTQGAMPAFASAFQRRAGGVLVASHLQSFLEVSYRVLRHLAQP | – | – | 120% | 106% | 33% | 59% | no serious adverse effects | no influence on infarct size, left ventricular function, or coronary restenosis | 20 fold | safe | up to 75,500 /μl | Mobilization of CD34(+) cells was observed | did not disclose any specific G-CSF toxicity
